One molecule from patent publication US20150239980A1 (NEOTOPE BOSCIENCES, published 2015) can be followed below.

This assay has as its target T1, recombinant human laminin 511 (Biolamina) (human, UniProt O15230 36-3695; P07942 22-1786; P11047 34-1609).
T1 construct: negative control; also called laminin 10 (α5β1γ1)
The assay can be described thus: flow cytometry, human MCAM CHO cells, pan-laminin antibody. In general terms: Flow cytometry measures light scatter and fluorescence of single cells or particles in a stream.

B1: human MCAM (melanoma cell adhesion molecule) expressed on transfected CHO cells (receptor)
chain: VPGEAEQPAPELVEVEVGSTALLKCGLSQSQGNLSHVDWFSVHKEKRTLIFRVRQGQGQSEPGEYEQRLSLQDRGATLALTQVTPQDERIFLCQGKRPRSQEYRIQLRVYKAPEEPNIQVNPLGIPVNSKEPEEVATCVGRNGYPIPQVIWYKNGRPLKEEKNRVHIQSSQTVESSGLYTLQSILKAQLVKEDKDAQFYCELNYRLPSGNHMKESREVTVPVFYPTEKVWLEVEPVGMLKEGDRVEIRCLADGNPPPHFSISKGNPSTREAEEETTNDNGVLVLEPARKEHSGRYECQAWNLDTMISLLSEPQELLVNYVSDVRVSPAAPERQEGSSLTLTCEAESSQDLEFQWLREETDQVLERGPVLQLHDLKREAGGGYRCVASVPSIPGLNRTQLVKLAIFGPPWMAFKERKVWVKENMVLNLSCEASGHPRPTISWNVNGTASEGDQDPQRVLSTLNVLVTPELLETGVECTASNDLGKNTSILFLELVNLTTLTPDSNTTTGLSTSTASPHTRANSTSTERKLPEPESRGVVIVAVIVCILVLAVLGAVLYFLYKKGKLPCRRSGKQEITLPPSRKTELVVEVKSDKLPEEMGLLQGSSGDKRAPGDQGEKYIDLRH
notes: also called hMCAM; CD146
B1: the binding result is “no binding (tested: 10 µg/ml)”.
